Laboratory results as given in paper PMC2670981, “Divergence of Catalytic Mechanism within a Glycosidase Family Provides Insight into Evolution of Carbohydrate Metabolism by Human Gut Flora” (Chemistry & Biology, 2008).

Tested on: O=[N+]([O-])c1ccc(O[C@H]2O[C@H](CO)[C@@H](O)[C@H](O)[C@H]2O)c([N+](=O)[O-])c1
Test: purified protein
Conditions: Ca2+

With “BtGH97a (Bacteroides thetaiotaomicron VPI-5482)” the Km was 140 ± 10 µM, the kcat was 280 ± 7 s⁻¹ and the kcat/Km was 2e+06 M⁻¹ s⁻¹.
